Results reported in US20120165503A1 (Merck Sharp & Dohme, published 2012).
Where two headings read alike, the source gives them in different places. *1 amine or outer side, *2 acyl side, *3 side chain or, on linkers, in order; H or OH if unused. Where no end group is shown, it is not given here. Side-chain parts run from the residue outwards. [ ]: non-standard residue; d: D form. The star is where a group is joined. O‑methyl‑L‑homoserine = COCC[C@H](N[*:1])C(=O)[*:2]; γGlu = O=C(O)[C@H](CCC(=O)[*:2])N[*:1]; Palmitoyl = CCCCCCCCCCCCCCCC(=O)*; Nle = CCCC[C@H](N)C(=O)O; Aib = CC(C)(N)C(=O)O

Legend:
human glucagon receptor [1] = biological target: T1, human glucagon receptor (human, UniProt P47871 26-477); assay: cell-based or functional assay
T1 sequence (P47871 26-477): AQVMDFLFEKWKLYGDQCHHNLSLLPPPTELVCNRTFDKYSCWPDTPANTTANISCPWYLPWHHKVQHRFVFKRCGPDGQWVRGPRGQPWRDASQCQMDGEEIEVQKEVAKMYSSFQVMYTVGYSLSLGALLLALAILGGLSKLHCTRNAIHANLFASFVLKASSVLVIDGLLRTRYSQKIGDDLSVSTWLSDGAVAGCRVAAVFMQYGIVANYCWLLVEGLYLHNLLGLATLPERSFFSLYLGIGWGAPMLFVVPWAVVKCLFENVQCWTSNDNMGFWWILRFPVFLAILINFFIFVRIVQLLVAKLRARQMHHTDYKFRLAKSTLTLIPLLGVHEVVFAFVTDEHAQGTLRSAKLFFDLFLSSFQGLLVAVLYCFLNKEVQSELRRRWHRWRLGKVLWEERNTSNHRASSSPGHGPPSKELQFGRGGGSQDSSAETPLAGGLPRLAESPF

human GLP-1 receptor [2] = biological target: T2, human GLP-1 receptor (human, UniProt P43220 24-463); assay: cell-based or functional assay
human glucagon receptor [3] = biological target: T1, human glucagon receptor; assay: cell-based or functional assay; remark: listed apart in the source
human GLP-1 receptor [4] = biological target: T2, human GLP-1 receptor; assay: cell-based or functional assay; remark: listed apart in the source
human GLP-1 receptor [5] = biological target: T2, human GLP-1 receptor; assay: receptor binding affinity (GLP-1R IC50); assay format not described
[6] = biological target: T3, glucagon receptor of wild-type mice (liver, in vivo) (mouse, UniProt Q61606 27-485); assay: in vivo competition with 125I-glucagon, liver of wild-type mice, s.c. dosing
T3 construct: whole, on cells; Receptor occupancy measured in vivo in liver; also called GCGR; GGCR
T3 sequence (Q61606 27-485): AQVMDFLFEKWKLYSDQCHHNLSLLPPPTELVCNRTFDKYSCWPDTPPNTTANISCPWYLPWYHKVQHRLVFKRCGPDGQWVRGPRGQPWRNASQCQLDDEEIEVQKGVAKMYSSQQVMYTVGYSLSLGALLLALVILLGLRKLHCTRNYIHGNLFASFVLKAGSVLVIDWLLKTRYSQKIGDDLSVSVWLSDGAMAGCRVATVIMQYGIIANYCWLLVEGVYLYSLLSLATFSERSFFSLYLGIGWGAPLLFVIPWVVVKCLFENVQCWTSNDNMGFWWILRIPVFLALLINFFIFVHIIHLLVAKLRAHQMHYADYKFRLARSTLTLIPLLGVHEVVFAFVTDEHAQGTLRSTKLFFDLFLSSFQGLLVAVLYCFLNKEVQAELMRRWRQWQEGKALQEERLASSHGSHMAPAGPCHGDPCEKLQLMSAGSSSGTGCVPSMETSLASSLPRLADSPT

[7] = biological target: T3, glucagon receptor of wild-type mice …; assay: in vivo GCGR receptor occupancy, competition assay in wild-type mice, 3 mpk s.c.
human glucagon receptor [8] = biological target: T1, human glucagon receptor; assay: cell-based or functional assay; remark: listed apart in the source
human GLP-1 receptor [9] = biological target: T2, human GLP-1 receptor; assay: cell-based or functional assay; remark: listed apart in the source
human glucagon receptor [10] = biological target: T1, human glucagon receptor; assay: cell-based or functional assay; remark: listed apart in the source
human GLP-1 receptor [11] = biological target: T2, human GLP-1 receptor; assay: cell-based or functional assay; remark: listed apart in the source

Binder	GCGR + 10% plasma (human glucagon receptor [1]) [nM]	GCGR EC50 (human glucagon receptor [1]) [nM]	GLP-1R EC50 (human GLP-1 receptor [2]) [nM]	% Activation of GCGR (human glucagon receptor [1]) [%]	% RO @ 3 mpk s.c. [7] [%]	further results
H[Aib]QGTFTSDYSKYLDSRRAQDFVQWL[O‑methyl‑L‑homoserine]NTKRNRNNIAC(cholesterol)-NH2 [OXM213]	1210	27.6	0.3	–	–	–
HSEGTFTSDYSKYLDSRRAQDFVQWLMNTKRNRNNIA (Native OXM with Glu instead of Gln at position 3; the entry already carries the change; also called OXM8 (Q3E); GLP-1 mimetic) [OXM-Q3E]	–	–	–	–	–	% Activation of GCGR (human glucagon receptor [3]): 17%; GCGR EC50 (human glucagon receptor [3]): 1640 nM; GLP-1R EC50 (human GLP-1 receptor [4]): 12.4 nM; IC50 (human GLP-1 receptor [5]): 237 nM; binding result [6]: no binding
HSDGTFTSDYSKYLDSRRAQDFVQWLMNTKRNRNNIA [OXM-Q3D]	–	–	–	–	–	% Activation of GCGR (human glucagon receptor [3]): 1%; GCGR EC50 (human glucagon receptor [3]): 3400 nM; GLP-1R EC50 (human GLP-1 receptor [4]): 2.3 nM
H[Aib]QGTFTSDYSKYLDSRRAQDFVQWL[Nle]NTKRNRNNIAC(cholesterol)-NH2 [OXM212]	1030	11.3	0.6	115	–	GCGR + 10% plasma (fold shift) (human glucagon receptor [1]): 92 fold
HXQGTFTSDYSKYLDSRRAQDFVQWLMNTKRNRNNIAC (Aib at position 2; C4 = Cys(cholest-5-en-3-yl{[(2R)-3-amino-2-(amino)-3-oxopropyl]thio}acetate) at position 38; C-terminal amide) [OXM70]	169	2.4	0.15	–	~0	–
HSQGTFTSDYSKYLDSRRAQDFVQWLMNTKRNRNNIAC (D-Ser at position 2; C7 = Cys(Oxa4-cholesterol) at position 38; C-terminal amide) [OXM115]	0.64	0.33	0.08	100	36	–
HXQGTFTSDYSKYLDSRRAQDFVQWLMNTKRNRNNIAC (Aib at position 2; C7 = Cys(Oxa4-cholesterol) at position 38; C-terminal amide) [OXM216]	12	0.63	3.1	93	10	–
HXQGTFTSDYSKYLDSRRAQDFVQWLMNTKRNRNNIAK (Aib at position 2; K(palmitoyl) at position 38; C-terminal amide) [OXM177]	3	0.59	0.1	93	30	GCGR + 10% plasma (fold shift) (human glucagon receptor [1]): 5 fold
H[dS]QGTFTSDK([γGlu-γGlu-Palmitoyl])SKYLD[Aib]RRAQDFVQWLMNTK[γGlu]-NH2 (N-terminus assumed; SMILES CCCCCCCCCCCCCCCC(=O)N[C@@H](CCC(=O)N[C@@H](CCC(=O)NCCCC[C@H](NC(=O)[C@H](CC(=O)O)NC(=O)[C@H](CO)NC(=O)[C@@H](NC(=O)[C@H](Cc1ccccc1)NC(=O)[C@@H](NC(=O)CNC(=O)[C@H](CCC(N)=O)NC(=O)[C@@H](CO)NC(=O)[C@@H](N)Cc1c[nH]cn1)[C@@H](C)O)[C@@H](C)O)C(=O)N[C@@H](CO)C(=O)N[C@@H](CCCCN)C(=O)N[C@@H](Cc1ccc(O)cc1)C(=O)N[C@@H](CC(C)C)C(=O)N[C@@H](CC(=O)O)C(=O)NC(C)(C)C(=O)N[C@@H](CCCNC(=N)N)C(=O)N[C@@H](CCCNC(=N)N)C(=O)N[C@@H](C)C(=O)N[C@@H](CCC(N)=O)C(=O)N[C@@H](CC(=O)O)C(=O)N[C@@H](Cc1ccccc1)C(=O)N[C@H](C(=O)N[C@@H](CCC(N)=O)C(=O)N[C@@H](Cc1c[nH]c2ccccc12)C(=O)N[C@@H](CC(C)C)C(=O)N[C@@H](CCSC)C(=O)N[C@@H](CC(N)=O)C(=O)N[C@H](C(=O)N[C@@H](CCCCN)C(=O)N[C@@H](CCC(N)=O)C(=O)O)[C@@H](C)O)C(C)C)C(=O)O)C(=O)O) [OXM418]	–	–	–	–	–	hGCGR EC50 (human glucagon receptor [8]): 0.002 nM; hGLP-1R EC50 (human GLP-1 receptor [9]): 0.026 nM; hGCGR + 20% plasma EC50 (human glucagon receptor [10]): 0.3 nM; hGLP-1R + 20% Plasma EC50 (human GLP-1 receptor [11]): 0.3 nM
